Key:
[1] = target: Vip3Ab1 (full length, not digested) (Bacillus thuringiensis); assay: SEC; analytical size exclusion chromatography of the full-length protein incubated overnight without midgut fluid, pH 10.0; 6 µL injected at 150 µg/mL; size estimated from molecular weight standards
[2] = target: Vip3Ab1 processed by midgut fluid (~65 kDa and ~20 kDa products that remain associated) (Bacillus thuringiensis); assay: SEC; analytical size exclusion chromatography after overnight digestion at pH 10.0, 30 °C, with S. frugiperda or S. eridania midgut fluid; 6 µL injected at 150 µg/mL; size estimated from molecular weight standards
[3] = target: Vip3Ab1-740 (full length, not digested) (Bacillus thuringiensis); assay: SEC; analytical size exclusion chromatography of the full-length protein incubated overnight without midgut fluid, pH 10.0; 6 µL injected at 150 µg/mL; size estimated from molecular weight standards
[4] = target: Vip3Ab1-740 processed by midgut fluid (~65 kDa and ~20 kDa products that remain associated) (Bacillus thuringiensis); assay: SEC; analytical size exclusion chromatography after overnight digestion at pH 10.0, 30 °C, with S. frugiperda or S. eridania midgut fluid; 6 µL injected at 150 µg/mL; size estimated from molecular weight standards

Substance: Vip3Ab1 (full length, not digested) (natural protein)
- stoichiometry N [1]: 4

Substance: Vip3Ab1 processed by midgut fluid (~65 kDa and ~20 kDa products that remain associated) (complex)
- stoichiometry N [2]: 4

Substance: Vip3Ab1-740 (full length, not digested)
- stoichiometry N [3]: 4

Substance: Vip3Ab1-740 processed by midgut fluid (~65 kDa and ~20 kDa products that remain associated) (complex)
- stoichiometry N [4]: 4

Reference: article PMC6563307
